Results on 74 sequences are retold here after the supplement of paper PMC12636428.

The test system of this series is Saccharomyces cerevisiae. Nature of the series: transcriptional activation domain activity (GFP:mCherry ratio, weighted mean of sorted bins, harmonized to initial dataset scale) (arbitrary fluorescence ratio units); higher = stronger transcriptional activation. The note with it: beta-estradiol 1 µM; induction time 4 h. The essentials:
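The listed activation activity is a read-weighted mean of bin median fluorescence, averaged across barcodes and linearly mapped onto the initial dataset scale. Barcoded tiles, fused to an estradiol-inducible synthetic transcription factor, were integrated at URA3 in yeast diploids bearing a GFP reporter. Cells were held 4 hours at 30 °C in SC with 1 uM beta-estradiol, sorted into 8 GFP:mCherry bins, and sequenced, and tiles with fewer than 50 reads were excluded.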
Consider “DPDASSFSGTVLDKAGSIARLSEDEQGGERAAKRRRLNKKVGMEAIAGLVGEY”, for which the “transcriptional activation domain activity” value worked out at 40800.

Consider “MIKKISFFLYIFALRSSFFLFLFVLYFFFPLFFFFFFSFSFFFLLLVSVATLE”, for which the “transcriptional activation domain activity” value worked out at 12200.

“MVMMIVCVCVLPCFVYVLWFLCRFFIYLFYYCVHAWPRWHREGGLFSLFFFFF”: the “transcriptional activation domain activity” value amounted to 30000.

On to “KYLFQSQRFGGHFFQIQVVLRDIEKYLEEVHQFMLQVNIMVLGFHAMLDKAFQ”, for which the “transcriptional activation domain activity” value was determined as 55900.

For “KDGKQRRTREAAGSGHARRRRRGDRERRKGQPRAGRPGAKAKGKAGGTGAKQE”, the “transcriptional activation domain activity” value worked out at 15700.

Turning to “KGETAFVEVDEFNRRKDGKEEGGVHNSDMVIKVYLPPHFRVRIALFVLAIWAF”, the “transcriptional activation domain activity” value came to 23800.

With “DDKPAEKKEAAAAPKKEEAKKEEAKPAEKKEEPKKEAATAVPKATEKKPATAA”, the “transcriptional activation domain activity” value stood at 25900.

“FDQYLFESISGLILRVQFIGGALPDSISIFEPTLFPPFTEILQGDIDQYIPYV”: the “transcriptional activation domain activity” value is 51300.

Take “HMLLRQFLILNLFNLIYLHLFLLLWLLLQQLLYLMILFKFPIPYLLALSYRLS”: the “transcriptional activation domain activity” value was determined as 55300.

On to “LYYTAPFNLQPYISYVGCGLVCLVLFFNGFWIFFPGQFSVANLFTSYFAPVFF”, for which the “transcriptional activation domain activity” value worked out at 65000.

Turning to “LSIPLYGLGGPAFSDDDEGEDLIPEHERYIQEAIDGYWVLVLRILVSNRPRKT”, the “transcriptional activation domain activity” value was 43800.

For the sequence “MEQTLATNQSLQPVKRVACNRCRTQKLKCNPSGEGRGSSSKCVRCAKAGTDCT”, the “transcriptional activation domain activity” value is 38900.

On to “SPRPSYILNAYLFISLLFDIVVLRTVWIALPSFQPVRIVLTSSFALKTIILFL”, for which the “transcriptional activation domain activity” value was 54000.

In the case of “MGWVHLIGRCLILPVHYVVPFFIFFYFAYTSILTTSIGLLGMDLSLRLVFLCS”, the “transcriptional activation domain activity” value was found to be 51000.

As to “EHVHVNKIPVRVSHGSGFELMGKSSFIFKGFRSLGILMLIFWSKANHILIVTV”, the “transcriptional activation domain activity” value stood at 70700.

As for “PLYAYTIWSWLCQGVYFTLLTLLSFDQFQSLGEICFIFFELSFGNAMMVTLVS”, the “transcriptional activation domain activity” value was 80300.

As for “GIYAFGKMYFIPYLLSNHWVVMLTYLQHSDPTIPVYRRGQWSFVRGALSTIDR”, the “transcriptional activation domain activity” value was 41800.

As to “AARVSDYSMAQFRFLLKFLLVHGRWNYVRICKYTVGTFWKELLFYLTQALFQR”, the “transcriptional activation domain activity” value was 48200.

Consider “RTYVQYWIQAFPKIARFFTIFFAAMSVTRYKAFMDSPVLALNNLAKRILRMSL”, for which the “transcriptional activation domain activity” value amounted to 44500.

Turning to “ANLAFPDDNSTNIQLQPFSESQSQNKFDYDMFFRDSSKEGNNLFGEFLEDDDD”, the “transcriptional activation domain activity” value turned out to be 92800.

In the case of “RKPEPAGEKAEGAQSGGEGQNGEGRRRGGGRGRGRARGRGGRGGRGGRGQRNA”, the “transcriptional activation domain activity” value was under 6570.

In the case of “QGEEGEKKAGGRGRGGGRKKAEKHMAEGSGDEISPKKSGKGGEAGGSKAAAGA”, the “transcriptional activation domain activity” value was found to be 33700.

Turning to “MWCTRWVLPFLLLPAPTSPPYFVLIFLLSLVMHARPCIYCIFFLIMLFITSNY”, the “transcriptional activation domain activity” value is 47000.

For the sequence “ILGKLLYHMILLYLCVDLSLSEQIEHLSAATHLTMILYRLGGKDFIPTNLYIN”, the “transcriptional activation domain activity” value is 45000.

Take “EKEVEGNKNNEEDKPEENEEKDGEDKDAKEKGEEDEDEEDRDQDQEDEDQEGR”: the “transcriptional activation domain activity” value came to 11800.

Consider “MGLVYPCWLVFFGWFPSFLFLIFLSFIINFILVFSFLLFTFIPPLFSLLSVQF”, for which the “transcriptional activation domain activity” value came to 37900.

Turning to “GWFYFNVLRHAELMVFTIFSPEHVTIWALRQHSVARLIRALCPEKLSMSHGFL”, the “transcriptional activation domain activity” value was 32400.

In the case of “MIRWVFFRGYLGQEGFLSFLFFFVFFSGLSLWERIGYGFFILPSFYMDLLFLA”, the “transcriptional activation domain activity” value came to 58300.

Take “GVLRLFQICLPCFAAVDFVQGFVRYLYHIPNFNGVYETKMWVWVGLIICLIFK”: the “transcriptional activation domain activity” value came out at 53900.

“VNFLGLMYAPLFVLSNFGAANCQHNALLFKFNMHAFFLCFDLFLLYKTWVVAQ”: the “transcriptional activation domain activity” value came to 49900.

Consider “PPPHLQLIYSCKAVRSSIQIFFDRAFIFKCSSSLWVCIVMFSRWLRTIRLFVW”, for which the “transcriptional activation domain activity” value turned out to be 85600.

As for “MIPPIHSPSFLQSYICFMLILPLPLMSIIVFHPLYFFWLFLSFLLLDYYLLLL”, the “transcriptional activation domain activity” value was determined as 23300.

In the case of “DALGLRRPSLYYKALVAGQCIFFMALCYTYRMIPYLDQKKIKTLKKVFFRIII”, the “transcriptional activation domain activity” value is 68800.

“MCIKLPLYPASFFIHRSLPLITSVFDLNLTLMVSLCPRIVPISFFACALLLVP”: the “transcriptional activation domain activity” value amounted to 53000.

As for “RQRQQNGRAPRAPRAEKPTDGFEVKEGRGERRGRGEGRGEGRGRGRGGRGRGR”, the “transcriptional activation domain activity” value worked out at 13000.

Take “MARQPSAPNAASDRGAATTTPRKPTTRSRTGCSACRKRRTKCDEARPACGHCV”: the “transcriptional activation domain activity” value turned out to be 44600.

Regarding “MAVETVGLGWRTLRSLIIEFILFYCLFTALGYNSLSLLNYRPWIFFSFLFCLF”, the “transcriptional activation domain activity” value amounted to 57500.

As to “MRSTGLESIKGLGTGYVGICGFIYLCISTYMHFLIPNIPNWIFFLLFLYPFLS”, the “transcriptional activation domain activity” value turned out to be 59300.

As for “SSACASRSSPSSSCGSPSTSCAGAAARASPPRRCSARPCPRRRRAASPTASTS”, the “transcriptional activation domain activity” value was 10100.

For the sequence “LLVLYLVLSYLKHSHMEGLGEFMIKFFEECNVDPFSKVFRGGHYKESVFEGVY”, the “transcriptional activation domain activity” value worked out at 76100.

On to “AIEQFLDNLISQDMMSSNASMNSESHLHIRSPKKQHRYTELNQRYPETHPHSN”, for which the “transcriptional activation domain activity” value amounted to 8240.

Turning to “KQPKKKAAAKKAQAPKKGKKRAADDDEEEEGEEDVKPKARGKGKGKAATGKGR”, the “transcriptional activation domain activity” value was 42300.

As to “EEEERKQNEKRERAEERRKEKLEEEKEKREKDRKETEKKGGKGKGEQGKGKEK”, the “transcriptional activation domain activity” value is 17200.

In the case of “RYLYAAMNLLSIINPIFSLIQFVIACFLVAGNLSLVYVRVWGPIVLLSLFLFD”, the “transcriptional activation domain activity” value was 45800.

Take “MYHISCWFIFFHLLMSHIFIFIFIFLLLLFYKCIIFLFLYTYFFYFLVFSRLL”: the “transcriptional activation domain activity” value amounted to 25700.

For “PAPKKAPAKPRGRKPKPTADSDNQEVEAEAKPKSARGKKRTVAEKAAEEGAQP”, the “transcriptional activation domain activity” value is under 6570.

On to “SQSRSRSASRSRSPPRKREKRDSSDREDSRDRRRNKSESRSRSRSPAKSAGSA”, for which the “transcriptional activation domain activity” value is 16300.

For “TSFVLYLKLNQVIAFSLRTIYSINKSKILLGFVGQQWEQHIVSELDSALNKWV”, the “transcriptional activation domain activity” value was determined as 37900.

Regarding “LYHALRLCLKFFVVSLVADPEFQRELDYFMKNKPWFIRWPAVFSLNMVWNYTK”, the “transcriptional activation domain activity” value was determined as 42600.

Turning to “CWWPFGIPVYMFFHAPETVHYSYFLFFFLSLSLPAMLNIYLVIFIVSWLKSVP”, the “transcriptional activation domain activity” value came out at 38200.

With “PFSHFVRMLLIYLPSLRLIVYYAFSFTLIMPFVLGYSVFMPSNWDTATFFFSY”, the “transcriptional activation domain activity” value worked out at 61900.

Regarding “MLRLLFWYLLIFVCLFCSSSPSYLSIFCLFFLCLIFIPSSSYILLPFLFLTLY”, the “transcriptional activation domain activity” value came out at 37500.

As to “IKITKEHKWIIVFKIRYKLFKYLVILFKLTNGASLFSYFINSLLFYNLLNNFY”, the “transcriptional activation domain activity” value was determined as 54600.

For the sequence “EIGPDGEVKKKYDPKDPMRPRRKKARRACFACQRAHLTCGDERPCQRCIKRGL”, the “transcriptional activation domain activity” value was determined as 53300.

In the case of “FVLDTFLWYIIWNTDIYTRLPKRIYAKILATADMEVKYKPKVLVSQIWNAVLI”, the “transcriptional activation domain activity” value was found to be 14000.

Turning to “SGGAPRGRGRGRREEKGRGRGRERGGRGRGGDRGRGRGRGRGVGGGSMGGGGG”, the “transcriptional activation domain activity” value is 15900.

Turning to “KNNDATIDNELTQILNEYNMNFNDNLGTSTSGKNKSACPSSFDANAMTKINPS”, the “transcriptional activation domain activity” value was 51800.

For the sequence “SISFIGHRMMFWFFACVGLACLFMAGALAVMCLHYLLMIFLFYLRCYPPYLGS”, the “transcriptional activation domain activity” value amounted to 31900.

As for “MHYVFLPFFFFFLLFFLLFPLFFFFLPSFHLLLFLSSSLLLSFLSLAPATSHH”, the “transcriptional activation domain activity” value is 38800.

Take “RLVVLYGASRIVVAIKRAHGGFDYTRRLSDEEPMVRIMTVVVSYSRLILISVY”: the “transcriptional activation domain activity” value was 53300.

With “LLILLLAFKKTSKEDPYEAIRLMSLAIGDQYAQGPDRFRLSCQWAVLARMISH”, the “transcriptional activation domain activity” value was 38400.

For the sequence “KKQEERKEGYRRKVEENKEKREGREKREKDEFWRREGKKRRYQEGDGAGAGAG”, the “transcriptional activation domain activity” value came out at 38100.

Consider “IMGRYCAKAVWLDTRQHLLNKLSQIGFNWDVLKSLVKSWWHYYSLAVMLWLYQ”, for which the “transcriptional activation domain activity” value was 69200.

For “MSTSSIVMCSLFLIVRTSTFLLTFIFPNSLPLMGYRLRVFFVWYVDFYGWIFT”, the “transcriptional activation domain activity” value is 57600.

Consider “SLTHGMPQDLRRAVRNGVRLASAEDQERYFTFILHEAVRLYGVLMMRIVYRLF”, for which the “transcriptional activation domain activity” value was 55300.

In the case of “MIMYKIYFYTHFRLFFYICFYVHVEFSKPILLHVVLKLIKQLVFLSTYHLFLL”, the “transcriptional activation domain activity” value was determined as 47900.

Consider “RTLLVVLISMLYFLTVEMFLPVFYLFDESLYNFLSWILTAFWSRLALWVLGFY”, for which the “transcriptional activation domain activity” value worked out at 56000.

Regarding “VILYLLMLIGNVTVVSWIVSLFFLSRKSYLKLGFKMVLVRKWYFKNVCQYVDY”, the “transcriptional activation domain activity” value is 67400.

Turning to “AKNLKYLFKVVLSMKGVPSFESSCKIKLLGIHFYYDQVYVYSLSMPMWDVFVF”, the “transcriptional activation domain activity” value was 73300.

For “KFLRHVLLKYFSFRLRSWMLNWAIGCVVRLFFFILHLLHPSWIFFLIYPYILN”, the “transcriptional activation domain activity” value is 54400.

As for “ATIAPPQLELVTDPQLSMDSFLEMIRVFTVPGKCFFDALAADSTDASCTEESL”, the “transcriptional activation domain activity” value is 95400.

Consider “VLLILGLGNPLCSRPVKLFEWMIAALVFAVLICMTMIIVKVNVVWSQAFNGFV”, for which the “transcriptional activation domain activity” value is 45600.

Turning to “QYTKLFFFFFLWPLPSLSLLHLPHFSCSLFPFFPTFAPPFSLSLYLSQSFLFL”, the “transcriptional activation domain activity” value was 54900.

“ELLESTEREGGRGLRPAKAEVREGGLDGVVGGLEDLRGGRVSGRKLVYRVGTE”: the “transcriptional activation domain activity” value turned out to be 35700.
